Values quoted from earlier work as cited in PMC10412679.
pKd: −log10 of the molar value.

Biological target: CD47 (Homo sapiens) (UniProt Q08722)

Question: With magrolimab as the substance, how does the pKd read?
Answer: Its pKd is 8.10.
